Assay results taken from US20230332166A1, “FORMATE-INDUCIBLE PROMOTERS AND METHODS OF USE THEREOF” (Imperial College Innovations Ltd, priority 2020, published 2023).

Tested on: Y. lipolytica JMY2900
Experiment: qPCR of putative FDH gene transcription upon induction with sodium formate
Assay type: cell-based, Yarrowia lipolytica
Conditions: YNB with 0.5% sodium formate, 6 h, 28° C., vs absence of formate; qPCR normalised to actin
Description: FIG. 3: Transcription levels of the FDH genes of Yarrowia lipolytica W29 measured by qPCR, normalised to actin (ACT1) expression. Yarrowia lipolytica was grown in YNB supplemented with 1% glucose and 0.5% yeast extract at 15 h at 28° C., before being washed and transferred into YNB with 0.5% of sodium formate for induction and grown for 6 h.
The inducibility of the putative FDH genes with formate was then tested by qPCR. YALI0E14256g1_1 and the nine putative FDH with the highest % identity to YALI0E14256g1_1 were selected for testing. Y. lipolytica JMY2900 was cultured in YNB media supplemented with 1% glucose and 0.5% yeast extract for 15 h at 28° C. Cells were washed with distilled water and cultured in fresh liquid YNB media supplemented with 0.5% sodium formate at 28° C. with agitation at 160 rpm, before being harvested at 6 h post-inoculated. Cells were frozen in liquid nitrogen and stored at −80° C. RNA was subsequently extracted using the RNeasy Mini Kit (Qiagen), and 2 μg was treated with DNAse (Ambion; Life Science Technologies, Saint-Aubain, France). cDNA was synthesised using the Maxima First Strand cDNA synthesis kit (Thermo Fischer Scientific, Villebon sur Yvette, France). qPCR was then performed using the SYBRgreen mastermix (Thermo Fischer Scientific) with gene-specific primers designed using Primer3 software. Relative expression levels were calculated using ΔCT and ΔΔCT methods. Expression levels were normalised to actin.

B1: Yali0A21353: putative Y. lipolytica FDH gene; promoter region SEQ ID NO: 2 (1 Kb) and 18 (1.5 Kb) (nucleic acid, listed as Yarrowia lipolytica)
DNA: ATGAAGGTCCTTCTTATTCTCTACGATGCCGGCTCCCACGCCAAGGACGAGCCCAAGCTGCTTGGATGCACCGAGAACGAGCTTGGTATTCGAGACTGGCTCGAGTCGCAGGGCCACACTCTCGTCACCACCTCTTCCAAGGACGGTGCCGACTCTGTGCTTGACAAGGAGATTGTTGACGCTGATGTAGTCATCACCACCCCGTTCCACCCCGGCTACATCAACAAGGAGCGAATTGACAAGGCCAAGAAGCTCAAGATCTGCATCACCGCCGGTGTCGGCTCCGACCACGTGGACCTCGATGCTGCCAACGCCCGAAACATTGCCGTTCTCGAGGTCACCGGCTCGAACGTCCAGTCCGTCGCTGAGCATGTTGTCATGACCATGCTGGTGCTGGTCCGAAACTTTGTCCCTGCCCACGAGCAGATTATTTCTGGCGGCTGGGACGTTGCTGCGGTTGCCAAGGACTCTTACGATCTCGAGGGCAAGGTCATCGGTACCGTTGGAGGCGGTCGAATCGGCCAGCGAGTGCTCAAGCGATGCAAGCCCTTTGACCCCATGGAGATGCTCTACTACGACTACCAGGCTATGCCAGCTGATGTGGAGAATGAGATTGGATGCCGACGAGTCGAGTCTCTGGAGGAGATGCTCTCTCTCTGTGACGTTGTAACCATCAACTGTCCTCTCCATGCCTCCACCAAGGGTCTCTTCAACAAGGAGCTCATTTCCCACATGAAGGACGGCGCTTGGCTCGTCAACACTGCTCGAGGAGCCATCTGCGTCACCGAGGACATTGTCGACGCTCTCGAGTCCGGCAAGATCCGAGGCTACGGTGGTGACGTCTGGTTCCCCCAGCCTGCCCCCAAGGACCACCCCTGGAGAACCATGCGAAACAAGTACGGCGGTGGAAACGCCATGACTCCCCATATCTCCGGTACTTCCATCGACGCCCAGGGCCGATACGCTGAGGGTACCAAGAAGATTCTTGAGGTCTTTTTCTCTGGCAAGCAGGATTACCGCCCCCAGGACATTATCTGCATCAACGGTCACTACGGTACCAAGGCTTACGGTGACGACAAGGAGCACAAGGCCCACGTTTCCAAGTAGCTGTTTAACTTATATAAGCAATTGACTGGATTTGATAACGA
modifications: YALI0A12353g
B1 was tested, and the “Fold increase on induction (fold change expression of putative FDH genes upon induction with sodium formate)” value was 7.9 fold.

B2: Yali0C08074: putative Y. lipolytica FDH gene; promoter region SEQ ID NO: 5 (1 Kb) and 21 (1.5 Kb) (nucleic acid, listed as Yarrowia lipolytica)
DNA: ATGAAGGTCCTTCTTGTTCTTTACGATGCTGGCTCCCATGCCAAGGATGAGCCCAAGCTGCTTGGATGCACCGAGAACGAGCTCGGTATCAGAGACTGGCTCGAGTCTCAGGGACATACCCTTGTAACTACGTCTTCCAAGGACGGTGCCGACTCTGTCCTCGACAAGGAGATTGTCGATGCCGATGTAGTCATCACCACCCCCTTTCATCCTGGATACATCAACAAGGAGCGAATCGACAAAGCCAAGAAGCTCAAGATTTGCATCACTGCTGGTGTCGGCTCTGACCACGTCGATCTCGACGCTGCCAACGCCCGAGATATTGCTGTTCTCGAAGTCACCGGCTCCAATGTCCAGTCTGTTGCCGAGCACGTTATCATGACCATGTTGGTCCTGGTGCGAAACTTTGTCCCTGCTCACGAGCAGATCATCTCTGGCGGTTGGGACGTTGCTGCTGTTGCCAAGGACTCATACGATCTCGAGGGTAAGGTCATCGGCACCGTTGGAGGAGGCCGAATTGGCCAGCGAGTGCTCAAGCGATGCAAGCCCTTCGACCCCATGGAGATGCTCTACTACGACTATCAGGCCATGCCAGCTGACGTTGAGAAGGAGATTGGATGTCGTCGAGTCGAGTCTCTCGAGGAGATGCTCTCTCTTTGTGACGTGGTCACCATCAACTGCCCTCTGCACGCTTCCACCAAGGGCCTGTTCAACAAAGAGCTCATCTCGCACATGAAGGATGGTGCCTGGCTCGTTAACACCGCTCGAGGAGCCATTTGTGTCACCGAGGACATTGTCGAGGCTCTCGAGTCCGGTAAGATCCGAGGTTACGGCGGAGACGTTTGGTTCCCCCAGCCTGCCCCTAAGGACCACCCCTGGAGAACCATGCGAAACAAGTACGGGGGAGGAAACGCCATGACTCCTCATATCTCCGGAACTTCCATCGACGCCCAGGGCCGATATGCCGAGGGCACCAAGAAGATCCTTGAGGTTTTCTTTTCTGGAAAGCAGGATTATCGACCCCAGGACATTATCTGCATCAATGGTCACTACGGCACAAAAGCTTACGGAGATGACAAGGAGCACAAGGAGCACCAGCTCAAGTAAATATATATAGCTAGAAACATATCTCGTTGTTGCTT
modifications: YALI0C08074g
For B2, the “Fold increase on induction (fold change expression of putative FDH genes upon induction with sodium formate)” value was 3.7 fold.
